We go through one molecule from patent US20120178908A1 (Novo Nordisk, published 2012).

The target in assay [1] is T1, biotinylated 20mer TLT-1 stalk peptide 13 (N-terminal biotin via 8-amino-3,6-dioxaoctanoic acid (bio-Oeg)).
T1 construct: also called well B 1
T1 peptide: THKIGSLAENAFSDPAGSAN
Nature of the assay: peptide-walk ELISA, biotin-peptide on streptavidin plate, triple determination. How it is done:
(§1) Epitope mapping by peptide walk. The peptide walking ELISA defined the minimal binding region of the peptide. This was established by coating biotinylated peptides with one residue frameshift in the stalk region of TLT-1 in streptavidin plates followed by binding of the antibody of interest (mAb 0061). A secondary antibody was added for detection and binding was measured at 450 nm. Positive control: binding to biotinylated TLT-1.
(§2) 1) 20mer peptide mapping with one residue frameshift (20,1) (see materials) 2) 16mer peptide mapping with one residue frameshift (16,1) (see materials) [0687] 1. Plate was prre-washed 3× with 250 μl wash buffer [0688] 2. 100 μl Biotinylated peptide-solution was added (from Masterplate 10000× diluted, one peptide pr well) [0689] 3. Incubated at RT for 1 hour or +5° C. over night [0690] 4. Washed 3× with wash buffer [0691] 5. 100 μl Primary antibody was added (dilution see above) [0692] 6. Incubated at RT for 1 hour [0693] 7. Washed 3× with wash buffer [0694] 8. 100 μl Secondary antibody was added (dilution see above) [0695] 9. Incubated at RT for 1 hour [0696] 10. Washed 3× with wash buffer [0697] 11. 100 μl Substrate/Develop buffer was added (Reaction time 3 min) [0698] 12. 100 μl 2M H3PO4 was added [0699] 13. Endpoint was read at 450 nm

In assay [2] the target is T2, biotinylated 20mer TLT-1 stalk peptide 6 (N-terminal biotin via 8-amino-3,6-dioxaoctanoic acid (bio-Oeg)).
T2 construct: also called well A 6
T2 peptide: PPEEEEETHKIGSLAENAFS
The description is as above. How it is done: as §1, §2

The target in assay [3] is T3, biotinylated 20mer TLT-1 stalk peptide 11 (N-terminal biotin via 8-amino-3,6-dioxaoctanoic acid (bio-Oeg)).
T3 construct: also called well A11
T3 peptide: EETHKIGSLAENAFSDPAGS
Described as above. The procedure: as §1, §2

The target in assay [4] is T4, hTLT-1 ECD-HPC4 M91A (human, UniProt Q86YW5 16-162).
T4 construct: As m27; also called Ala mutant 24
T4 chain: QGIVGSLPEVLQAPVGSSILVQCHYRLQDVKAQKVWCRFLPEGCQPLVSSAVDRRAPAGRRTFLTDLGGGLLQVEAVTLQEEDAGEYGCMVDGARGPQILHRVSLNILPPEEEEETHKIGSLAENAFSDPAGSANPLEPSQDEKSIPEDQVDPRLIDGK
Nature of the assay: SPR (ProteOn), mAb captured by anti-hFc, 100 nM mutant. How it is done:
Anti-hFc Polyclonal antibody was immobilized onto separate flow cells of a GLM sensor chip using a 1:1 mixture of 0.4 M EDAC [1-ethyl-3-(3-dimethylaminopropyl) carbodiimide hydrochloride] and 0.1 M Sulfo-NHS [N-hydroxysulfosuccinimide]. Each anti-body was diluted in 10 mM sodium acetate pH 5.0 to a concentration of […], and was immobilized to an individual flow cell at 30 μl/min for 240s. The antibodies were immobilized to flow cells A1-A6 (horizontal direction). After immobilization, the active sites on the flow cell were blocked with 1 M ethanolamine. The final immobilization level of capture antibody typically ranged from approximately 9,000 to 10,000 RU in one experiment. Capture of the anti-TLT1 antibodies 0197-0000-0023, 0197-0000-0051, 0197-0000-0061 and 0197-0000-0062 was conducted by diluting to […] into HBS-EP buffer (10 mM HEPES, 150 mM NaCl, 3 mM EDTA, 0.05% surfactant P20, pH 7.4) and injected at 30 μl/min for 60s in vertical direction, creating interspot reference points with only anti-human Fc antibodies. The final capture level of test antibodies typically ranged from approximately 200 to 300 RU in one experiment. […] Each hTLT-1 ECD-HPC4 protein was diluted to 100 nM, based on the calculated average Mw, into HBS-EP buffer and injected at 30 μl/min for 240s. […]

B1: mAb 0061 HC2; LC2 (antibody, V domains shown)
VH: EVKLLESGGGLVQPGGSLKLSCAASGFDFSRYWMTWVRQAPGKGLEWIGEINPDSSTINYNPSLKDKFIISRDNAKNTLYLQMSEVRSEDTALYYCASGVFTSWGQGTLVTVSA
VL: DVVMTQTPLSLPVSLGDQASISCRSSQSLVHRNGNTYFHWALQKPGQSPKLLIYKVSNRFSGVPDRFSGSGSGTDFTLKISRVEAEDLGVYFCSQSTHVPYTFGGGTKLEIKR
notes: also called 0197-0000-0061; 0012HC.T60N + 0012LC.C36A
As for B1, the “absorbance at 450 nm” value in assay [1], in assay [2] and in assay [3] was above 3 A450 throughout. Moreover, in assay [4], the binding result is listed as “binds”.
